Laboratory results taken from paper PMC2213037.

Target: Syk tyrosine kinase (mouse (endogenous in NMuMG)) (UniProt P48025)
Experiment: co-IP

MMTV Env surface unit (SU, gp52), sequence (P03374 99-688): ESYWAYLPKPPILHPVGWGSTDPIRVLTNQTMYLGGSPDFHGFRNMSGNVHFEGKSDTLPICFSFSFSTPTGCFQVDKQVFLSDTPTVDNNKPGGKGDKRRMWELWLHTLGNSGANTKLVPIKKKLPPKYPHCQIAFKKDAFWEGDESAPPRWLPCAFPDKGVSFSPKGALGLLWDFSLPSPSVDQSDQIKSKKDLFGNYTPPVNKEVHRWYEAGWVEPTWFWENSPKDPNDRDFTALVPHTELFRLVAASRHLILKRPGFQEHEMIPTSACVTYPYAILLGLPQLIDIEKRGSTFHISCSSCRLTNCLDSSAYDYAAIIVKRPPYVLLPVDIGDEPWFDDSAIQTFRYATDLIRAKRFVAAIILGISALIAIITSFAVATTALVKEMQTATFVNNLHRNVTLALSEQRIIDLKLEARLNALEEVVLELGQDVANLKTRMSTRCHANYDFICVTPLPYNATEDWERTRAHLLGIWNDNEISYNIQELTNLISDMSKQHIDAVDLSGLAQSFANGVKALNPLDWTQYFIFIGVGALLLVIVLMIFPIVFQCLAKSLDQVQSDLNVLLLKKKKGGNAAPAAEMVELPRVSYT
Syk tyrosine kinase (mouse (endogenous in NMuMG)), sequence (P48025 whole entry): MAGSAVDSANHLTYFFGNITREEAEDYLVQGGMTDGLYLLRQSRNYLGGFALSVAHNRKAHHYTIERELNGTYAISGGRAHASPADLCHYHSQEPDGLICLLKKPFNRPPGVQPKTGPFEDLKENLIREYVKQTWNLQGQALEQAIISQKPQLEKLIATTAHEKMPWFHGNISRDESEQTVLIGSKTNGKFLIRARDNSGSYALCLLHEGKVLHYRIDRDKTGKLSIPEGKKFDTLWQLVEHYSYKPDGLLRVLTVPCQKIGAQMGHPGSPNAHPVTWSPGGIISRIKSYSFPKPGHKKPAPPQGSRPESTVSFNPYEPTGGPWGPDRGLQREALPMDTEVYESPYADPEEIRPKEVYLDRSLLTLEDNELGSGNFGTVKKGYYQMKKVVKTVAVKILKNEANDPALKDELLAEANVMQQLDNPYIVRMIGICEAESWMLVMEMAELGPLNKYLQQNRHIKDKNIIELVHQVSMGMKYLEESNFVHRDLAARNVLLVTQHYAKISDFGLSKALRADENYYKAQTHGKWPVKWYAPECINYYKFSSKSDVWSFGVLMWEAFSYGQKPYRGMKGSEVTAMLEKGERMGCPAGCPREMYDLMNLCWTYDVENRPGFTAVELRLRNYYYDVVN

Substance: MMTV Env surface unit (SU, gp52) (from UniProt P03374 99-454) (natural protein)
- percent of SU coprecipitated with Syk: < 34%
